From patent US20050153368A1

Target: Gα15 (mammalian)

clamp current on perfusion with 4-methyl phenol, voltage clamp of Xenopus oocytes expressing AgOR1/Gα15: 20 nA
Substance: Anopheles gambiae odorant receptor 1 (from UniProt Q8WTE7)
